Source: patent US20110064733A1

What was measured:
[1] = biological target: Muc1 mucin bearing the CA6 sialoglycotope (DS6 antigen), as expressed by CA6-positive human tumour cell lines (human) (UniProt P15941); assay: flow cytometry on CaOV3 cells
[2] = biological target: Muc1 mucin bearing the CA6 sialoglycotope (DS6 antigen), as expressed by CA6-positive human tumour cell lines (human) (UniProt P15941); assay: flow cytometry on HeLa cells
[3] = biological target: Muc1 mucin bearing the CA6 sialoglycotope (DS6 antigen), as expressed by CA6-positive human tumour cell lines (human) (UniProt P15941); assay: flow cytometry on BT549 cells
[4] = biological target: Muc1 mucin bearing the CA6 sialoglycotope (DS6 antigen), as expressed by CA6-positive human tumour cell lines (human) (UniProt P15941); assay: flow cytometry on KB cells
[5] = biological target: Muc1 mucin bearing the CA6 sialoglycotope (DS6 antigen), as expressed by CA6-positive human tumour cell lines (human) (UniProt P15941); assay: flow cytometry on MCF7 cells

Substance: CM1 antibody (Muc1 VNTR antibody)
- MMF (maximum mean relative fluorescence) (relative fluorescence) [1]: 1030
- MMF (maximum mean relative fluorescence) (relative fluorescence) [2]: 335
- MMF (maximum mean relative fluorescence) (relative fluorescence) [3]: 188
- MMF (maximum mean relative fluorescence) (relative fluorescence) [4]: 338
- MMF (maximum mean relative fluorescence) (relative fluorescence) [5]: 1020
